Measurements taken from the DeepSol protein solubility set.

Assay: soluble on expression in E. coli; label from the status in PepcDB or PDB records

| Sequence | soluble on expression in E. coli |
| --- | --- |
| MGSDKIHHHHHHMKNANHRFFLRERLMKLKTTLFGNVYQFKDVKEVLAKANELRSGDVLAGVAAASSQERVAAKQVLSEMTVADIRNNPVIAYEDDCVTRLIQDDVNETAYNQIKNWSISELREYVLSDETSVDDIAFTRKGLTSEVVAAVAKICSNADLIYGAKKMPVIKKANTTIGIPGTFSARLQPNDTRDDVQSIAAQIYEGLSFGVGDAVIGVNPVTDDVENLSRVLDTIYGVIDKFNIPTQGCVLAHVTTQIEAIRRGAPGGLIFQSICGSEKGLKEFGVELAMLDEARAVGAEFNRIAGENCLYFETGQGSALSAGANFGADQVTMEARNYGLARHYDPFIVNTVVGFIGPEYLYNDRQIIRAGLEDHFMGKLSGISMGCDCCYTNHADADQNLNENLMILLATAGCNYIMGMPLGDDIMLNYQTTAFHDTATVRQLLNLRPSPEFERWLESMGIMANGRLTKRAGDPSLFF | not soluble |
| MPSVISTDVLIVGAGVAGLWLNARLRRQGFSTVLVESASLGGGQSLKSQGIIHGGAKYALHGALSGASEAIADMPRRWREALDGKGELDLSGVRLLSEAHYLWSPGTIAGNLTSFFASKAVRGRVDQVKGEQLPPALQNPKFKGKVYRLAELVVDVPSLIKRLAELAEDSLLAGQKIEPLYEADELIGLRVDGRDIHAQRIVLSAGGGTADLLNALGVSQPQMQRRPLHMVLVKGPTLKPLFAHCLGGGPKPRITVTTHPAADGQCVWYLGGDLAEADGVAREPDAQIAVARKELEALLPWVDLSQAQWATLRVDRAEPAQSGLVRPDNAFLDSQRRLMVGWPTKLALAPDFADRVLSHLSKDDIHPTPQAPLVDVPRPPLAIPVWDELLPLEHHHHHH | not soluble |
| MMHEKNIALLCDEADRLLQLNINLLRQMVDEPDVLSDSKNENGLLFDKRKALKRIEELEGEQIKTARREMVLAVVGTMKAGKSTTINAIVGQEILPNRNRPMTSVPTLIRHVPGKTEPVLHLEHIQPVRNLLITLQEKLATPAGQQVAQSLQQTGDTRELLDILADDVWLKNEYHGEDEIFTGLASLNDLVRLAAAMGTEFPFDEYAEVQKLPVIDVAFSHLVGMDACQGTLTLLDTPGPNEAGQPQMEMMMRDQLQKASAVLAVMDYTQMNSKADEEVRKELNAIADVSAGRLFVLVNKFDEKDRNGDGADAVRQKVPAMLNSDVLPASRVYPGSSRQAYLANRALHELRKNGALPVDEAWVDDFIREAFGPMVEEDDWKDSTKVNKKAEKLWNISLIDQLITEVIQSSHSRAAALAVDSAAAKLMQNAENVSEYLSLRHQGLQQSIQSLQAHITSLLADIQEIEECQNQVTGDVRMAMEDINTKTGELLTKVCASLEEELNDYFRSGKRKEQQMLEEENSAQPRERNAFAFFHDIFGTGNQHDRMRDFDPDSPEIKFSDRRAALELMTQIESTVTSLHREAEAQFRPELEKIVSGIETGFRGTALYATENIAGRINARLEDEGFTVKISFPAVSQLQTRLAVKINLSALMEERTETVTRRRRQSGVWGTVCRWFGTSDLGWENYDEDVSRSVININKAREEVMSLTRAYFGELQASIEQDINQPVRQEIDAFFCAFREKVEQLRNTLIQSSEDHKRDQQAQERLTGRLQALNERVPELITDSKALREELETML | not soluble |
| MNVASRVVVNADRVKGTINRNIYGHFSEHLGRCIYEGLWVGEDSPIPNTNGIRNDVLEALKQMKIPVLRWPGGCFADEYHWKDGVGPREKRKRMVNTHWGGVIENNHFGTHEFMMLCELLGCEPYISGNVGSGTVQEMSEWVEYITFDGESPMANWRRENGREKPWRIKYWGVGNQNWGCGGNMRAEYYADLYRQFQTYLRNYGDNKLHKIACGANTADYHWTEVLMKQAAPFMHGLSLHYYTVPGPWEKKGPATGFTTDEWWVTLKKALFMDRLVTKHSAIMDVYDPDKRIDLIVDEWGTWYDVEPGTNPGFLYQQNSIRDALVAGATLHIFHRHCDRVRMANIAQLVNVLQSVILTEGERMLLTPTYHVFNMFKVHQDAELLDTWESVERTGPEGELPKVSVSASRAADGKIHISLCNLDFETGASVDIELRGLNGGVSATGTTLTSGRIDGHNTFDEPERVKPAPFRDFKLEGGHLNASLPPMSVTVLELTAG | soluble |
| MRSLTHIAKIELPPVRRVTYVKHYSIQPANLEFNAEGTPVSRDFDDVYFSNDNGLEETRYVFLGGNQLEARFPEHPHPLFVVAESGFGTGLNFLTLWQAFDQFREAHPQAQLQRLHFISFEKFPLTRADLALAHQHWPELAPWAEQLQAQWPMPLPGCHRLLLDEGRVTLDLWFGDINELISQLDDSLNQKVDAWFLDGFAPAKNPDMWTQNLFNAMARLARPGGTLATFTSAGFVRRGLQEAGFTMQKRKGFGRKREMLCGVMEQTLPLPCSTPWFNRTGSSKREVAIIGGGIASALLSLALLRRGWQVTLYCADEAPALGASGNRQGALYPLLSKHDEALNRFFSNGFTFARRLYDSLPVKFDHDWCGVTQLGWDEKSQHKIAQMLSMDLPEELAVAVEANAVEQITGVTTNCSGITYPQGGWLCPAELTRNVLELAQQQGLQIYYQYQLQDLSRKDDCWLLTFAGDQQATHSVVVLANGHQISRFSQTSSLPVYSVAGQVSHIPTTPELAKLKQVLCYDGYLTPQNPANQHHCIGASYHRGSEETAYSEDNQQQNRQRLIDCFPHAQWAKTVDVSKKEARCGVRCATRDHLPMVGNVPDYEATLVEYASLAEQKDKAVSAPVFDDLFMFAALGSRGLCSAPLCAEILAAQMSDEPIPMDASTLAALNPNRLWVRKLLKGKAVKAG | not soluble |
| DFELLHKLGGGNYGDVHLASVKDCNFVCALKRLSIKKLADFDIATQLRREIEIAFNTRHKYLLRTYAYFFDETDIYLIMEPCSNGMLYTELNRVKCFAPPTAARYVAQLAEALLYLHQHHILHRDIKPENILLDHNNNIKLADFGWSVHDPDNRRKTSCGTPEYFPPEIVGRQAYDTSADLWCLGIFCYELLVGKTPFVGKDTDQICKNIHSMHFKIPENIPSEAKDLIANLLLRDGSRRLALHRVVNHQFLLKYYYLPNNL | soluble |
| MNSVGEACTDMKREYDQCFNRWFAEKFLKGDSSGDPCTDLFKRYQQCVQKAIKEKEIPIEGLEFMGHGKEKPENSSLEHHHHHH | not soluble |
| MPVLHNRISNDELKAKMLAESEPRTTISFYKYFTIASPQQTRDALYQVFTALDVFGRVYLAHEGINAQISVPQSKLETFRQQLYTFDPALDGVRLNIALEDDGKSFWVLRMKVRDRIVADGIDDPTFDASNVGDYLKAADVNAMLDDPDAVFIDMRNHYEYEVGHFENALEIPADTFREQLPKAVEMLREHADKKIVMYCTGGIRCEKASAWMKHNGFNKVWHIEGGIIEYARRARAQGLPVRFIGKNFVFDERMGERISDEVIAHCHQCGASCDSHTNCKNDGCHLLFIQCPQCASKFNGCCSEQCCEELALPEEEQRRRRAGRENGNKIFNKSRGRLNSKLSIPDPAEAAALEHHHHHH | soluble |
| MQRLSPGEFKTLISKERKSHFITPFALVYKTFCDLGYDQKNSDYFLNNPSEYIIAMRKNCWKEFEPFEKEFTTRMLSYLIDEERIKDMSPYDAIRDFTMEYPTHIYDLALSNTQSRRSRAGKEFESILELLMMGAGIPVDVQGAIGKSFFQKNQIGKLVDLVMPGVVQYTSNKRNTMLISAKTTLRERWQEVPEEVNRTGIREMYLATLDDSFSEETINILYEANVVVVTTVENKNFKYKNNNRVLTFEDMLQSAMELSRKWNNVSYTDSEKEEIQQSILKQIEKYSDFPYVVNYYRNRLSALFD | soluble |
| SQLPPGKPEIFKCRSPNKETFTCWWRPGTDGGLPTNYSLTYHREGETLMHECPDYITGGPNSCHFGKQYTSMWRTYIMMVNATNQMGSSFSDELYVDVTYIVQPDPPLELAVEVKQPEDRKPYLWIKWSPPTLIDLKTGWFTLLYEIRLKPEKAAEWEIHFAGQQTEFKILSLHPGQKYLVQVRCKPDHGYWSAWSPATFIQIPSDFTMND | soluble |
| MSHAVSRLRQERLARSLKPFVARGSRMPRCEGCRLLPSYCMCAWRPRVEARAGMCLVMHDIEALKPTNTGWLIADTVADTFAFGWSRTEVDPRLLELLADPQWQPYLVFPGEYVAAERVVNEVAPLVEGKRPLFILLDATWTEARKMFRKSPYLEPFPVLSLLPEQLSRYRLRRSTRGEHLCTAEVAALCLELAGDEAAGEALGAYLEVFSERYLGAKRHIPLDEASPAHRALAPFRG | not soluble |
| GMRVDKHEVRVGELAAGQPLSLPVYRFKGKGAGPSVYIQANVHGAEVQGNAVIYQLMKLLEHYELLGDISLVPLANPLGINQKSGEFTLGRFDPITGVNWNREYLDHGFNIEVWYQEHSHLDDDTLITAFRATLVEECARRLNNPWGVTTGHRLAVTLQSMAHRADIVLDLHTGPKSCKHLYCPEYERSAAQYFSIPYTLLIPNSFGGAMDEAAFVPWWTLAEVASSHGRELGVRVSALTLELGSQERIDLDDALEDAEGILAYLSHRGVIAETVLPKPMKRYGCFLKNYRKFHAPKAGMVEYLGKVGVPMKATDPLVNLLRLDLYGTGEELTVLRLPEDGVPILHFASASVHQGTELYKVMTKVFEL | soluble |
| MAEDLYKRLNTVDRLFTLALDLHSHTDLAAQTLMKSGKVHSIERVETDMLYQNHDKKFHLRSREFLDFPQNYCDLIVSLLSLQLTNDTPGVLSQIKNILKPDGLFLAVMAGVGTLSELRECLLQAEIEIYGGASPRIYPFADIRAVGALLQRVGFALPVADIEDVTIRYDTMFDLINDLRAMGMQNALINRSRRPVSKRFFLRAAEIYAKRFSDLDGRIRAHFSFIWLSGWAPHPNQQKPIQPGSAQISLADVLVKQSKKT | not soluble |
| MEDVNDLYTMALGEFYAPAPSTSSIKKPAKVPEDQPSTSSAPPTTALFRQLLIGSRSQIERLKKENEELKTKLKHATSSGGVVICPNCTHHFKDRQCPMRPRAMKKMRARNCVELEFGNLEDLEMWLYLNQLETNNDGMPTVMNVKKATNCPEKSLKESGSLLPELVEKKREEKRQQEDQKAVVLEKRKPVTQKVQDHLKRRSKSPIGRGKDQSDKDIISNKKRKLNRQSKEEIDERSKIAKKAPISQRVQFPRMPAPQAPDAVASKVREQKPVDITPHPRPSASRNSESQKPVASKIQEKKTEVRTKSSPTNPIVNSKQPSQKKPADLTPHPKRPPITPETLPSRNSEIQKPAASKIQEKKTEVIARSQKSEASTKIAQKPSPTNPTVNFKQPSQKPADLTPKPITLASKSPITRSSEVSTEPSTKPKRAPIVWDDKPKDSTAKELPKELPKAKSHFEFKVKPIEKKDASPPKTTSTSSASPPNPDPAMKQKYKFVPTSKKQKLTETKNKDQKSTINESPVECQNSGQNEASNPTKLKDQELNKHVVPKNPEAIETPDERQESVQKSNEASATSSTKPSDPVETPSDEVDPQETQWKVYSVKQSRPVLDHIYKFALARQSLKRHWNDKMIVLNGDVPQEKVEESKPLSIAESLKRIGVSVEGIAVLQKQLKASAPEPPVLSTTVDDEDALGEFFPDLAKRKTSEIRPVSAESLWSVTDREEEELKILVREDSVVPPSGDCLMDVEAYEITEDLESQTYEASQSDWKEFCLEDVDDDVDETLRERKLSEMEKSAENLDENMDWIENLEELGNDDEQEEEEEEDQEQEQEQVAPSRSISVPLEMKNDFVLSDEDDPVSPVTSTPRKEDFNDDLSGCLEEDEEDTENLLPQAKDDSFIDELDWNYGTDYEEEEVEEAEVVVEEKDNSGSDHDATLEDGEISENDDGEDEKKEEEPKKPIRERTKFMITEDQLGPKTDEEEDEPPEIHRAPPRKRKINYNRQKGSEDNRHRNYRKRDTRPATYLSLLKRRNS | not soluble |
| MGSDKIHHHHHHMILDTLENLAHYTHLGPRIAKALQHLKETDFTQLPVGNYELEGKDIFVIVNDYETKPREVEPFEVHRKYIDVQYVVSGEEEFGYLPLADQTPSKPYYDKHDYAEFDYESNKARAAFIPFKAGMFALFFPQDMHMPGVSATPQKVRKVVIKVKI | not soluble |
